According to publication PMC4118869 (PLoS ONE, 2014):

B1: R1a-B6 monovalent (VHH)
VHH: QVQLVESGGGLVQPGGSLRLSCAASGSFFSRYRMGWYRQAPGEQRELVASIAYDGSTSYADPVKGRFTISRDNANTVHLQMYSLKPDDTAVYYCNLDPPGILYWGQGTQVTVSS
notes: source: E. coli WK6, periplasmic extract, purified (Talon IMAC, Superdex 75 SEC)
B2: R1a-A5 monovalent (VHH)
VHH: QVQLVESGGGLVQPGGSLRLSCSASGSAVLFSTYPMSWYRQAPGKQRELVAAVTTDGSTSYADYAKGRFTISRDNAKNTVYLQMNSLKPEDTAVYYCNARDGFFNRYDYWGQGTQVTVSS
notes: as for B1

Molecular target: recombinant H5-HA, A/Vietnam/1203/2004 (H5N1) (Influenza A virus A/Vietnam/1203/2004 …, UniProt Q5EP31, strain)
Assay: SPR
Details: both partners purified

Row | Binder | Kd
1 | B1 | 0.51 nM
2 | B2 | 0.27 nM
